# Results published in article PMC4250520, “Calcium-induced conformational changes of the regulatory domain of human mitochondrial aspartate/glutamate carriers” (Nature Communications, 2014).
# T1: N-terminal domain of citrin (human, UniProt Q9UJS0 2-319)
# T1 construct: human citrin N-terminal domain, residues 2-319; In the crystal structure it is joined to the C-terminal domain on one chain; The N-terminal domain of citrin could not be expressed on its own; also called EF-hands 1-8; source: Lactococcus lactis NZ9000, as part of the purified fusion; set free by cleavage with MBP-TEV
# T1 sequence (looked up): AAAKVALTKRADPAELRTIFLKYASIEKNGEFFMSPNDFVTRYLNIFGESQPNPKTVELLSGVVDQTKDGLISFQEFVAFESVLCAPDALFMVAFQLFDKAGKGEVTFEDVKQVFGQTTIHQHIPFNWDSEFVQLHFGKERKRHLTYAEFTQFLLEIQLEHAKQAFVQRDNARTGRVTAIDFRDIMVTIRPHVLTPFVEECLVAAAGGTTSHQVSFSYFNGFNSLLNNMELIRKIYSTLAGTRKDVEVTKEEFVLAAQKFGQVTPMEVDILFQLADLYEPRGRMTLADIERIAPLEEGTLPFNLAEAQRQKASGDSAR
# B1: citrin (mitochondrial aspartate/glutamate carrier isoform 2), full-length (natural protein, human, UniProt Q9UJS0 1-675, looked up)
# chain: MAAAKVALTKRADPAELRTIFLKYASIEKNGEFFMSPNDFVTRYLNIFGESQPNPKTVELLSGVVDQTKDGLISFQEFVAFESVLCAPDALFMVAFQLFDKAGKGEVTFEDVKQVFGQTTIHQHIPFNWDSEFVQLHFGKERKRHLTYAEFTQFLLEIQLEHAKQAFVQRDNARTGRVTAIDFRDIMVTIRPHVLTPFVEECLVAAAGGTTSHQVSFSYFNGFNSLLNNMELIRKIYSTLAGTRKDVEVTKEEFVLAAQKFGQVTPMEVDILFQLADLYEPRGRMTLADIERIAPLEEGTLPFNLAEAQRQKASGDSARPVLLQVAESAYRFGLGSVAGAVGATAVYPIDLVKTRMQNQRSTGSFVGELMYKNSFDCFKKVLRYEGFFGLYRGLLPQLLGVAPEKAIKLTVNDFVRDKFMHKDGSVPLAAEILAGGCAGGSQVIFTNPLEIVKIRLQVAGEITTGPRVSALSVVRDLGFFGIYKGAKACFLRDIPFSAIYFPCYAHVKASFANEDGQVSPGSLLLAGAIAGMPAASLVTPADVIKTRLQVAARAGQTTYSGVIDCFRKILREEGPKALWKGAGARVFRSSPQFGVTLLTYELLQRWFYIDFGGVKPMGSEPVPKSRINLPAPNPDHVGGYKLAVATFAGIENKFGLYLPLFKPSVSTSKAIGGGP
# notes: also called SLC25A13; AGC2; source: purified in lauryl maltose neopentyl glycol
# B2: C-terminal domain of citrin (domain or fragment, human, UniProt Q9UJS0 613-675, looked up)
# chain: GVKPMGSEPVPKSRINLPAPNPDHVGGYKLAVATFAGIENKFGLYLPLFKPSVSTSKAIGGGP
# notes: human citrin C-terminal domain, residues 613-675; residues 632-658 are seen in the structure; In the crystal structure it is joined to the N-terminal domain on one chain; also called C-terminal helix; source: Lactococcus lactis NZ9000, as part of the purified fusion; set free by cleavage with MBP-TEV
# B3: N- and C-terminal domain fusion of citrin (domain or fragment, human)
# chain: AAAKVALTKRADPAELRTIFLKYASIEKNGEFFMSPNDFVTRYLNIFGESQPNPKTVELLSGVVDQTKDGLISFQEFVAFESVLCAPDALFMVAFQLFDKAGKGEVTFEDVKQVFGQTTIHQHIPFNWDSEFVQLHFGKERKRHLTYAEFTQFLLEIQLEHAKQAFVQRDNARTGRVTAIDFRDIMVTIRPHVLTPFVEECLVAAAGGTTSHQVSFSYFNGFNSLLNNMELIRKIYSTLAGTRKDVEVTKEEFVLAAQKFGQVTPMEVDILFQLADLYEPRGRMTLADIERIAPLEEGTLPFNLAEAQRQKASGDSARENLYFQGGVKPMGSEPVPKSRINLPAPNPDHVGGYKLAVATFAGIENKFGLYLPLFKPSVSTSKAIGGGP
# notes: human citrin N-terminal domain, residues 2-319; TEV protease cleavage site that links the two domains in place of the carrier domain; human citrin C-terminal domain, residues 613-675; A Factor-Xa cleavage site follows the octa-histidine tag; no tag removal step is described in the purification of this fusion; also called citrin N- and C-terminal fusion protein; regulatory domain of citrin; …
# B4: N- and C-terminal domain fusion of aralar (domain or fragment, human)
# chain: AVKVQTTKRGDPHELRNIFLQYASTEVDGERYMTPEDFVQRYLGLYNDPNSNPKIVQLLAGVADQTKDGLISYQEFLAFESVLCAPDSMFIVAFQLFDKSGNGEVTFENVKEIFGQTIIHHHIPFNWDCEFIRLHFGHNRKKHLNYTEFTQFLQELQLEHARQAFALKDKSKSGMISGLDFSDIMVTIRSHMLTPFVEENLVSAAGGSISHQVSFSYFNAFNSLLNNMELVRKIYSTLAGTRKDVEVTKEEFAQSAIRYGQVTPLEIDILYQLADLYNASGRLTLADIERIAPLAEGALPYNLAELQRQQSPGLGRENLYFQGGLKPAGSEPTPKSRIADLPPANPDHIGGYRLATATFAGIENKFGLYLPKFKSPSVAVVQPKAAVAATQ
# notes: human aralar N-terminal domain, residues 2-317; TEV protease cleavage site that links the two domains in place of the carrier domain; human aralar C-terminal domain, residues 611-678; also called aralar fusion; source: gene codon-optimized for expression in L. lactis; expressed, purified
# B5: N-terminal domain of aralar (domain or fragment, human, UniProt O75746 2-311, looked up)
# chain: AVKVQTTKRGDPHELRNIFLQYASTEVDGERYMTPEDFVQRYLGLYNDPNSNPKIVQLLAGVADQTKDGLISYQEFLAFESVLCAPDSMFIVAFQLFDKSGNGEVTFENVKEIFGQTIIHHHIPFNWDCEFIRLHFGHNRKKHLNYTEFTQFLQELQLEHARQAFALKDKSKSGMISGLDFSDIMVTIRSHMLTPFVEENLVSAAGGSISHQVSFSYFNAFNSLLNNMELVRKIYSTLAGTRKDVEVTKEEFAQSAIRYGQVTPLEIDILYQLADLYNASGRLTLADIERIAPLAEGALPYNLAELQRQQ
# notes: human aralar N-terminal domain, residues 2-311; Tag removed with Factor Xa; also called aralar N-terminal domain; regulatory domain of aralar; source: Lactococcus lactis NZ9000, purified (Nickel Sepharose, Factor Xa, SEC); not shown: His8, N-terminal, cleaved
# Tests used:
# [1] = target: the molecule itself; test: SEC-MALLS; Superose 6 10/300 GL; 20 mM Hepes pH 8.0, 150 mM NaCl, 0.002% (w/v) LMNG, 0.004 mg/ml TOCL; protein-conjugate (three-detector) method
# [2] = target: T1, N-terminal domain of citrin; test: SEC; fusion cleaved with MBP-TEV overnight, then Superose 12 10/30 HR; 20 mM Hepes pH 7.5, 150 mM NaCl, 10 mM EGTA (sample E, supplemented with 10 mM EGTA and 10 mM EDTA); peak fractions on Tris-tricine gels; settings: both partners purified
# [3] = target: the molecule itself; test: SEC-MALLS; Superdex 200 10/300 GL; 20 mM Hepes pH 7.5, 150 mM NaCl, 5 mM CaCl2; two-detector method
Binder,stoichiometry N [3],also measured
B1,,stoichiometry N [1]: 2
B2,,binding result [2]: binds
B3,2,
B4,2,
B5,2,
